Assay results published in patent US20230220042A1 (SHANGHAI JIAO TONG UNIVERSITY SCHOOL OF MEDICINE, published 2023).

T1: Biotin-FcγRIIB (human FcγRIIB, Sino Biological) (human, UniProt P31994 43-217, limits assumed, biotin-labeled)
T1 construct: Used at 1 µg/ml with Streptavidin-APC for flow cytometry and sorting; also called CD32b
T1 sequence (looked up): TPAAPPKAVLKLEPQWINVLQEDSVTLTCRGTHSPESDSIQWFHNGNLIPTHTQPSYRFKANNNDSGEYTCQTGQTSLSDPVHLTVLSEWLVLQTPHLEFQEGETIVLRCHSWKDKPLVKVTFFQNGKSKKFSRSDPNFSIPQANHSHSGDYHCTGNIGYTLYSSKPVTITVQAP


The binders below were run against T1, Biotin-FcγRIIB (human FcγRIIB, Sino …) (assay: NGS after FACS sort of 3T3-displayed Library2 for biotin-FcγRIIB binding).

Row | Binder | Enrichment factor (percentage after sorting/percentage before sorting) | Increased factor (enrichment factor/wild-type enrichment factor)
1 | human IgG2 anti-mouse CD40 surface displayed antibody, H268D (antibody, name in EU numbering, m1 with this Fc mutation (Eu numbering); copies: 2 + 2) light chain (with the P2A rest): DTVLTQSPALAVSPGERVTISCRASDSVSTLMHWYQQKPGQQPKLLIYLASHLESGVPARFSGSGSGTDFTLTIDPVEADDTATYYCQQSWNDPWTFGGGTKLELKRTVAAPSVFIFPPSDEQLKSGTASVVCLLNNFYPREAKVQWKVDNALQSGNSQESVTEQDSKDSTYSLSSTLTLSKADYEKHKVYACEVTHQGLSSPVTKSFNRGECGSGATNFSLLKQAGDVEENPG heavy chain: EVQLVESDGGLVQPGRSLKLPCAASGFTFSDYYMAWVRQAPTKGLEWVASISYDGSSTYYRDSVKGRFTISRDNAKSTLYLQMDSLRSEDTATYYCGRHSSYFDYWGQGVMVTVSSASTKGPSVFPLAPCSRSTSESTAALGCLVKDYFPEPVTVSWNSGALTSGVHTFPAVLQSSGLYSLSSVVTVPSSNFGTQTYTCNVDHKPSNTKVDKTVERKCCVECPPCPAPPVAGPSVFLFPPKPKDTLMISRTPEVTCVVVDVSDEDPEVQFNWYVDGVEVHNAKTKPREEQFNSTFRVVSVLTVVHQDWLNGKEYKCKVSNKGLPAPIEKTISKTKGQPREPQVYTLPPSREEMTKNQVSLTCLVKGFYPSDIAVEWESNGQPENNYKTTPPMLDSDGSFFLYSKLTVDKSRWQQGNVFSCSVMHEALHNHYTQKSLSLSPGKLEPPPSTVSNMATVAVLVVLGAAIVTGAVVAFVMKMRRRNTGGKGGDYALAPGSQTSDLSLPDCKVMVHDPHSLA | 1.54 | 2.68
2 | human IgG2 anti-mouse CD40 surface displayed antibody, H268K (antibody, name in EU numbering, m1 with this Fc mutation (Eu numbering); copies: 2 + 2) light chain (with the P2A rest): DTVLTQSPALAVSPGERVTISCRASDSVSTLMHWYQQKPGQQPKLLIYLASHLESGVPARFSGSGSGTDFTLTIDPVEADDTATYYCQQSWNDPWTFGGGTKLELKRTVAAPSVFIFPPSDEQLKSGTASVVCLLNNFYPREAKVQWKVDNALQSGNSQESVTEQDSKDSTYSLSSTLTLSKADYEKHKVYACEVTHQGLSSPVTKSFNRGECGSGATNFSLLKQAGDVEENPG heavy chain: EVQLVESDGGLVQPGRSLKLPCAASGFTFSDYYMAWVRQAPTKGLEWVASISYDGSSTYYRDSVKGRFTISRDNAKSTLYLQMDSLRSEDTATYYCGRHSSYFDYWGQGVMVTVSSASTKGPSVFPLAPCSRSTSESTAALGCLVKDYFPEPVTVSWNSGALTSGVHTFPAVLQSSGLYSLSSVVTVPSSNFGTQTYTCNVDHKPSNTKVDKTVERKCCVECPPCPAPPVAGPSVFLFPPKPKDTLMISRTPEVTCVVVDVSKEDPEVQFNWYVDGVEVHNAKTKPREEQFNSTFRVVSVLTVVHQDWLNGKEYKCKVSNKGLPAPIEKTISKTKGQPREPQVYTLPPSREEMTKNQVSLTCLVKGFYPSDIAVEWESNGQPENNYKTTPPMLDSDGSFFLYSKLTVDKSRWQQGNVFSCSVMHEALHNHYTQKSLSLSPGKLEPPPSTVSNMATVAVLVVLGAAIVTGAVVAFVMKMRRRNTGGKGGDYALAPGSQTSDLSLPDCKVMVHDPHSLA | 1.32 | 2.31
3 | human IgG2 anti-mouse CD40 surface displayed antibody, H268E (antibody, name in EU numbering, m1 with this Fc mutation (Eu numbering); copies: 2 + 2) light chain (with the P2A rest): DTVLTQSPALAVSPGERVTISCRASDSVSTLMHWYQQKPGQQPKLLIYLASHLESGVPARFSGSGSGTDFTLTIDPVEADDTATYYCQQSWNDPWTFGGGTKLELKRTVAAPSVFIFPPSDEQLKSGTASVVCLLNNFYPREAKVQWKVDNALQSGNSQESVTEQDSKDSTYSLSSTLTLSKADYEKHKVYACEVTHQGLSSPVTKSFNRGECGSGATNFSLLKQAGDVEENPG heavy chain: EVQLVESDGGLVQPGRSLKLPCAASGFTFSDYYMAWVRQAPTKGLEWVASISYDGSSTYYRDSVKGRFTISRDNAKSTLYLQMDSLRSEDTATYYCGRHSSYFDYWGQGVMVTVSSASTKGPSVFPLAPCSRSTSESTAALGCLVKDYFPEPVTVSWNSGALTSGVHTFPAVLQSSGLYSLSSVVTVPSSNFGTQTYTCNVDHKPSNTKVDKTVERKCCVECPPCPAPPVAGPSVFLFPPKPKDTLMISRTPEVTCVVVDVSEEDPEVQFNWYVDGVEVHNAKTKPREEQFNSTFRVVSVLTVVHQDWLNGKEYKCKVSNKGLPAPIEKTISKTKGQPREPQVYTLPPSREEMTKNQVSLTCLVKGFYPSDIAVEWESNGQPENNYKTTPPMLDSDGSFFLYSKLTVDKSRWQQGNVFSCSVMHEALHNHYTQKSLSLSPGKLEPPPSTVSNMATVAVLVVLGAAIVTGAVVAFVMKMRRRNTGGKGGDYALAPGSQTSDLSLPDCKVMVHDPHSLA | 1.69 | 2.94

The binders below were run against T1, Biotin-FcγRIIB (human FcγRIIB, Sino …) (assay: NGS after FACS sort of 3T3-displayed LibraryMix for biotin-FcγRIIB binding).

Row | Binder | Enrichment factor (percentage after sorting/percentage before sorting) | Increased factor (enrichment factor/wild-type enrichment factor)
4 | human IgG2 anti-mouse CD40 surface displayed antibody, S267R (antibody, name in EU numbering, m1 with this Fc mutation (Eu numbering); copies: 2 + 2) light chain (with the P2A rest): DTVLTQSPALAVSPGERVTISCRASDSVSTLMHWYQQKPGQQPKLLIYLASHLESGVPARFSGSGSGTDFTLTIDPVEADDTATYYCQQSWNDPWTFGGGTKLELKRTVAAPSVFIFPPSDEQLKSGTASVVCLLNNFYPREAKVQWKVDNALQSGNSQESVTEQDSKDSTYSLSSTLTLSKADYEKHKVYACEVTHQGLSSPVTKSFNRGECGSGATNFSLLKQAGDVEENPG heavy chain: EVQLVESDGGLVQPGRSLKLPCAASGFTFSDYYMAWVRQAPTKGLEWVASISYDGSSTYYRDSVKGRFTISRDNAKSTLYLQMDSLRSEDTATYYCGRHSSYFDYWGQGVMVTVSSASTKGPSVFPLAPCSRSTSESTAALGCLVKDYFPEPVTVSWNSGALTSGVHTFPAVLQSSGLYSLSSVVTVPSSNFGTQTYTCNVDHKPSNTKVDKTVERKCCVECPPCPAPPVAGPSVFLFPPKPKDTLMISRTPEVTCVVVDVRHEDPEVQFNWYVDGVEVHNAKTKPREEQFNSTFRVVSVLTVVHQDWLNGKEYKCKVSNKGLPAPIEKTISKTKGQPREPQVYTLPPSREEMTKNQVSLTCLVKGFYPSDIAVEWESNGQPENNYKTTPPMLDSDGSFFLYSKLTVDKSRWQQGNVFSCSVMHEALHNHYTQKSLSLSPGKLEPPPSTVSNMATVAVLVVLGAAIVTGAVVAFVMKMRRRNTGGKGGDYALAPGSQTSDLSLPDCKVMVHDPHSLA | 1.52 | 2.03
5 | human IgG2 anti-mouse CD40 surface displayed antibody, S267E/S298R (antibody, name in EU numbering, m1 with these Fc mutations (Eu numbering); copies: 2 + 2) light chain (with the P2A rest): DTVLTQSPALAVSPGERVTISCRASDSVSTLMHWYQQKPGQQPKLLIYLASHLESGVPARFSGSGSGTDFTLTIDPVEADDTATYYCQQSWNDPWTFGGGTKLELKRTVAAPSVFIFPPSDEQLKSGTASVVCLLNNFYPREAKVQWKVDNALQSGNSQESVTEQDSKDSTYSLSSTLTLSKADYEKHKVYACEVTHQGLSSPVTKSFNRGECGSGATNFSLLKQAGDVEENPG heavy chain: EVQLVESDGGLVQPGRSLKLPCAASGFTFSDYYMAWVRQAPTKGLEWVASISYDGSSTYYRDSVKGRFTISRDNAKSTLYLQMDSLRSEDTATYYCGRHSSYFDYWGQGVMVTVSSASTKGPSVFPLAPCSRSTSESTAALGCLVKDYFPEPVTVSWNSGALTSGVHTFPAVLQSSGLYSLSSVVTVPSSNFGTQTYTCNVDHKPSNTKVDKTVERKCCVECPPCPAPPVAGPSVFLFPPKPKDTLMISRTPEVTCVVVDVEHEDPEVQFNWYVDGVEVHNAKTKPREEQFNRTFRVVSVLTVVHQDWLNGKEYKCKVSNKGLPAPIEKTISKTKGQPREPQVYTLPPSREEMTKNQVSLTCLVKGFYPSDIAVEWESNGQPENNYKTTPPMLDSDGSFFLYSKLTVDKSRWQQGNVFSCSVMHEALHNHYTQKSLSLSPGKLEPPPSTVSNMATVAVLVVLGAAIVTGAVVAFVMKMRRRNTGGKGGDYALAPGSQTSDLSLPDCKVMVHDPHSLA | 32.8 | 43.8
6 | human IgG2 anti-mouse CD40 surface displayed antibody, S267V/S298L (antibody, name in EU numbering, m1 with these Fc mutations (Eu numbering); copies: 2 + 2) light chain (with the P2A rest): DTVLTQSPALAVSPGERVTISCRASDSVSTLMHWYQQKPGQQPKLLIYLASHLESGVPARFSGSGSGTDFTLTIDPVEADDTATYYCQQSWNDPWTFGGGTKLELKRTVAAPSVFIFPPSDEQLKSGTASVVCLLNNFYPREAKVQWKVDNALQSGNSQESVTEQDSKDSTYSLSSTLTLSKADYEKHKVYACEVTHQGLSSPVTKSFNRGECGSGATNFSLLKQAGDVEENPG heavy chain: EVQLVESDGGLVQPGRSLKLPCAASGFTFSDYYMAWVRQAPTKGLEWVASISYDGSSTYYRDSVKGRFTISRDNAKSTLYLQMDSLRSEDTATYYCGRHSSYFDYWGQGVMVTVSSASTKGPSVFPLAPCSRSTSESTAALGCLVKDYFPEPVTVSWNSGALTSGVHTFPAVLQSSGLYSLSSVVTVPSSNFGTQTYTCNVDHKPSNTKVDKTVERKCCVECPPCPAPPVAGPSVFLFPPKPKDTLMISRTPEVTCVVVDVVHEDPEVQFNWYVDGVEVHNAKTKPREEQFNLTFRVVSVLTVVHQDWLNGKEYKCKVSNKGLPAPIEKTISKTKGQPREPQVYTLPPSREEMTKNQVSLTCLVKGFYPSDIAVEWESNGQPENNYKTTPPMLDSDGSFFLYSKLTVDKSRWQQGNVFSCSVMHEALHNHYTQKSLSLSPGKLEPPPSTVSNMATVAVLVVLGAAIVTGAVVAFVMKMRRRNTGGKGGDYALAPGSQTSDLSLPDCKVMVHDPHSLA | 2.09 | 2.8
7 | human IgG2 anti-mouse CD40 surface displayed antibody, S298L (antibody, name in EU numbering, m1 with this Fc mutation (Eu numbering); copies: 2 + 2) light chain (with the P2A rest): DTVLTQSPALAVSPGERVTISCRASDSVSTLMHWYQQKPGQQPKLLIYLASHLESGVPARFSGSGSGTDFTLTIDPVEADDTATYYCQQSWNDPWTFGGGTKLELKRTVAAPSVFIFPPSDEQLKSGTASVVCLLNNFYPREAKVQWKVDNALQSGNSQESVTEQDSKDSTYSLSSTLTLSKADYEKHKVYACEVTHQGLSSPVTKSFNRGECGSGATNFSLLKQAGDVEENPG heavy chain: EVQLVESDGGLVQPGRSLKLPCAASGFTFSDYYMAWVRQAPTKGLEWVASISYDGSSTYYRDSVKGRFTISRDNAKSTLYLQMDSLRSEDTATYYCGRHSSYFDYWGQGVMVTVSSASTKGPSVFPLAPCSRSTSESTAALGCLVKDYFPEPVTVSWNSGALTSGVHTFPAVLQSSGLYSLSSVVTVPSSNFGTQTYTCNVDHKPSNTKVDKTVERKCCVECPPCPAPPVAGPSVFLFPPKPKDTLMISRTPEVTCVVVDVSHEDPEVQFNWYVDGVEVHNAKTKPREEQFNLTFRVVSVLTVVHQDWLNGKEYKCKVSNKGLPAPIEKTISKTKGQPREPQVYTLPPSREEMTKNQVSLTCLVKGFYPSDIAVEWESNGQPENNYKTTPPMLDSDGSFFLYSKLTVDKSRWQQGNVFSCSVMHEALHNHYTQKSLSLSPGKLEPPPSTVSNMATVAVLVVLGAAIVTGAVVAFVMKMRRRNTGGKGGDYALAPGSQTSDLSLPDCKVMVHDPHSLA | 2.18 | 2.91
